Measurements as given in patent US20180362652A1 (Biogen, published 2018).
Values joined by “and” are separate entries in the source; they are usually repeats but may differ in a detail not shown here. Identical values can stand only once.

Key:
[1] = molecular target: T1, cynomolgus monkey BDCA2 (full-length, cell surface, E73 SNP form) (cynomolgus monkey, UniProt Q8WTT0 1-213 (human entry)); assay: flow cytometry, whole blood pDCs of cynomolgus monkey donor 11, anti-human IgG PE secondary
T1 construct: also called cyno BDCA2; surface cynomolgus monkey BDCA2
T1 chain: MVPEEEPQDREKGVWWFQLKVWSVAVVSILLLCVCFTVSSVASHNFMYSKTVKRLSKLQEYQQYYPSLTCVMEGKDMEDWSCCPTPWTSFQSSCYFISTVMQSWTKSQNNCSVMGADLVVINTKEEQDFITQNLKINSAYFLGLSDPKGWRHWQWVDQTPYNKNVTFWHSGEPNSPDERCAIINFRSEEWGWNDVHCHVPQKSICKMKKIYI
Protocol: The maximal values were taken from the values at the plateau in each assay (FIGS. 24 and 25).
MFI of PE was calculated with FlowJo software, and EC50 curves were generated in GraphPad Prism software.

[2] = molecular target: T1, cynomolgus monkey BDCA2 (full-length, …); assay: indirect method: flow cytometry of pDCs in cynomolgus whole blood, unlabelled BIIB059 titrated, free BDCA2 detected with the competitor BIIB059-A647 at 10 ug/mL [panel Cynomolgus monkey 8]
Protocol: (§1) The MFI of PE (open symbols, graphed on the left y-axis) or A647 (closed symbols, graphed on the right y-axis) was calculated in FlowJo software, and graphed using GraphPad Prism software (four-parameter nonlinear regression curve fit of log-transformed data).

[3] = molecular target: T1, cynomolgus monkey BDCA2 (full-length, …); assay: cell-based or functional assay
[4] = molecular target: T1, cynomolgus monkey BDCA2 (full-length, …); assay: flow cytometry, Alexa647-labelled BIIB059 on pDCs in cynomolgus monkey whole blood, on ice
Protocol: (§2) Cynomolgus monkey (Toxikon, Inc, Bedford, Mass.) or human peripheral blood (Biogen Idec) were collected in sodium heparin collection tubes and maintained at room temperature. A FACS staining antibody cocktail for identifying pDCs was added to each whole blood aliquot, incorporating CD20, CD14, CD123 and HLA-DR antibodies. […] Blood was incubated on ice, protected from light, for 30 min. […] After a 10-15 min. incubation at room temperature, samples were centrifuged at 1400 rpm for 5 min. The supernatant was decanted, leaving only a pellet of white blood cells (WBC). Each WBC pellet was washed with 5 mL of FACS buffer (1% BSA+0.002% NaAzide+1 mM CaCl₂+1 mM MgCl₂ in PBS), and centrifuged at 1400 rpm for 5 min. The supernatant was decanted, and each WBC pellet was resuspended in 200 μL of FACS buffer and transferred to a 96-well round bottom plate (Fisher Scientific). The plate was centrifuged at 1400 rpm for 5 min. The supernatant was dumped out of the plate, and each WBC pellet was washed with 200 μL of FACS buffer. The plate was centrifuged at 1400 rpm for 5 min, and the supernatant dumped out of the plate. Following washing (as above), WBCs were resuspended in 200 μL of 1% paraformaldehyde (PFA) in PBS, and fixed at 4° C. overnight, protected from light. […] Each WBC pellet was resuspended in 250 μL of FACS buffer and fluorescence intensity measured on a LSRII 4-color FACS machine. […]

[5] = molecular target: the molecule itself; assay: AlphaScreen self-association assay: glutathione donor and acceptor beads carrying human FcRIIa (CD32a) GST; a signal needs antibody on both beads to associate with itself
Protocol: The AlphaScreen assay is a homogeneous proximity assay utilizing glutathione donor and acceptor beads (Perkin Elmer) to bind human FcRIIa (CD32a) GST. Various concentrations of the antibodies to be tested were added in this mixture. […] The level of emission detected by the Envision (Perkin Elmer) instrument is proportional to the degree of self-association.

[6] = molecular target: T2, human C1q (human, UniProt P02745 23-245; P02746 28-253; P02747 29-245); assay: C1q ELISA: antibody coated in a dilution series, human C1q at 2 µg/mL, read at 450 nm; column C (midpoint, the C value of paragraph 430) of the printed 4-parameter fit; the axis reads Concentration with no unit, the unit of the coated antibody is from the legend paragraph 61; A 0.061, B 2.527, D 2.212, R^2 1
T2 construct: also called complement component C1q
T2 sequence (P02745 23-245 limits assumed, chain 1 of 3): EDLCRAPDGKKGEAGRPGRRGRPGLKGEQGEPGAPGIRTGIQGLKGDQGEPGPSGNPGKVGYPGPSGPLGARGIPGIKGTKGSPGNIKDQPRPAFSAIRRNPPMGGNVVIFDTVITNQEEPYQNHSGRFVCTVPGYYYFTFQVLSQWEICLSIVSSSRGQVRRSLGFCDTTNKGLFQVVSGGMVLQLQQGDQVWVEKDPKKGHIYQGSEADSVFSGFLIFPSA
T2 sequence (P02746 28-253 limits assumed, chain 2 of 3): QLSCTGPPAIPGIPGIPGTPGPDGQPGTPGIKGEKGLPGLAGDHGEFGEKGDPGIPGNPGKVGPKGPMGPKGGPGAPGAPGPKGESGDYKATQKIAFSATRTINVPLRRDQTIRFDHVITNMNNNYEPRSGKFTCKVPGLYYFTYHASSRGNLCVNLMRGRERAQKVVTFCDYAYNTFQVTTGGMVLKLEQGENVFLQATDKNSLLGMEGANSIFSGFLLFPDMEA
T2 sequence (P02747 29-245 limits assumed, chain 3 of 3): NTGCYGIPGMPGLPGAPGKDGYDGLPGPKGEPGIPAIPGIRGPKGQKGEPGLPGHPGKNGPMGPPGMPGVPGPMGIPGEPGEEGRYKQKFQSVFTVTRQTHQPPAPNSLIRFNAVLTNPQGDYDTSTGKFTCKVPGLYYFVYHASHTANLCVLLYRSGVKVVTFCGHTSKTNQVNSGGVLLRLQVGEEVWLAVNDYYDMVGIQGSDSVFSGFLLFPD

[7] = molecular target: T1, cynomolgus monkey BDCA2 (full-length, …); assay: indirect method: flow cytometry of pDCs in cynomolgus whole blood, unlabelled BIIB059 titrated, free BDCA2 detected with the competitor BIIB059-A647 at 10 ug/mL [panel Cynomolgus monkey 6]
Protocol: as §1

[8] = molecular target: T3, human BDCA2 (full-length, cell surface) (human, UniProt Q8WTT0 1-213); assay: flow cytometry, Alexa647-labelled BIIB059 on pDCs in human whole blood, on ice
T3 construct: also called huBDCA2; surface human BDCA2
T3 sequence: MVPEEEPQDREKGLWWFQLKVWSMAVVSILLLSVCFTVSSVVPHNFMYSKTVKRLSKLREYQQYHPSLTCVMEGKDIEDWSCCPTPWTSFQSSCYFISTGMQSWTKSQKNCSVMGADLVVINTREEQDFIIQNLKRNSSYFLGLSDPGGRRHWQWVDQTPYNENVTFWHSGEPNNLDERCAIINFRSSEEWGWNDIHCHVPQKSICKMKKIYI
Protocol: as §2

[9] = molecular target: T3, human BDCA2 (full-length, cell surface); assay: flow cytometry, whole blood, Alexa647-labeled BIIB059 on pDCs
Protocol: as §2

[10] = molecular target: T1, cynomolgus monkey BDCA2 (full-length, …); assay: as above
Protocol: as §2

B1: BIIB059 (antibody, human IgG1, kappa)
heavy: not shown
light: DIQLTQSPSSLSASVGDRVTITCKASQSVDYDGDSYMNWYQQKPGKAPKLLIYAASTLESGVPSRFSGSGSGTDFTLTISSLQPEDFATYYCQQANEDPRTFGQGTKVEIKRTVAAPSVFIFPPSDEQLKSGTASVVCLLNNFYPREAKVQWKVDNALQSGNSQESVTEQDSKDSTYSLSSTLTLSKADYEKHKVYACEVTHQGLSSPVTKSFNRGEC
notes: Humanized IgG1 kappa, mature chains; in some assays labelled with Alexa647; also called hu24F4 H4/L1 C95A; H4-L1-C95A (YL751/YL746)
[1]
  EC50: 1.4 mg/L
[2]
  IC50 (read off the curve): ~2 mg/L
[3]
  EC50 of BDCA2 internalization on pDCs (cynomolgus monkey 3, IV 10 mg/kg): 0.15 µg/mL
  EC50 of BDCA2 internalization on pDCs (cynomolgus monkey 4, SC 0.2 mg/kg): 0.088 µg/mL
  EC50 of BDCA2 internalization on pDCs (cynomolgus monkey 5, IV 1 mg/kg): 0.087 µg/mL
  EC50 of BDCA2 internalization on pDCs (cynomolgus monkey 6, IV 1 mg/kg): 0.025 µg/mL
  EC50 of BDCA2 internalization on pDCs (cynomolgus monkey 6, SC 0.2 mg/kg): 0.046 µg/mL
  EC50 of BDCA2 internalization on pDCs (cynomolgus monkey 7, IV 1 mg/kg): 0.09 µg/mL
  EC50 of BDCA2 internalization on pDCs (cynomolgus monkey 8, IV 10 mg/kg): 0.37 µg/mL
  EC50 of BDCA2 internalization on pDCs (cynomolgus monkey 10, IV 10 mg/kg): 0.126 µg/mL
  EC50 of BDCA2 internalization on pDCs (cynomolgus monkey 12, SC 0.2 mg/kg): 0.121 µg/mL
  EC50 of BDCA2 internalization on pDCs (mean of the cynomolgus monkeys): 0.123 µg/mL
[4]
  EC50: 0.944 mg/L
[5]
  binding result: no binding (tested: 250 µg/ml)
[6]
  EC50: 2.5 mg/L
[7]
  IC50 (read off the curve): ~1 mg/L
[8]
  EC50: 1.44 mg/L
[9]
  EC50: 1 µg/mL to 2 µg/mL (2×) and 7 nM to 13 nM
[10]
  EC50: 2 µg/mL and 7 nM to 13 nM
